# Experimental data taken from patent US20150239991A1 (GLENMARK PHARMACEUTICALS S A, published 2015).
# Where two headings read alike, the source gives them in different places.
# B1: Anti-HER2 FAB R19G/T57A/Y59A (Fab)
# heavy chain: EVQLVESGGGLVQPGGSLGLSCAASGFNIKDTYIHWVRQAPGKGLEWVARIYPTNGYARAADSVKGRFTISADTSKNTAYLQMNSLRAEDTAVYYCSRWGGDGFYAMDYWGQGTLVTVSSASTKGPSVFPLAPSSKSTSGGTAALGCLVKDYFPEPVTVSWNSGALTSGVHTFPAVLQSSGLYSLSSVVTVPSSSLGTQTYICNVNHKPSNTKVDKKVEPKSC
# light chain: not shown
# notes: also called combination R19G/T57A/Y59A
# B2: Anti-hCD19 FAB-Fc S426M/M428G/H433D/N434A (antibody, human IgG1, kappa)
# heavy chain: QVQLVQSGGGVVQPGRSLRLSCAASGVSLPDYGVSWVRQAPGKGLEWVAVIWGSETTYYNSALKSRFTISRDNSKNTLYLQMNSLRAEDTAVYYCAKHYYYGGSYAMDYWGQGTLVTVSSASTKGPSVFPLAPSSKSTSGGTAALGCLVKDYFPEPVTVSWNSGALTSGVHTFPAVLQSSGLYSLSSVVTVPSSSLGTQTYICNVNHKPSNTKVDKKVEPKSCDKTHTCPPCPAPELLGGPSVFLFPPKPKDTLMISRTPEVTCVVVDVSHEDPEVKFNWYVDGVEVHNAKTKPREEQYNSTYRVVSVLTVLHQDWLNGKEYKCKVSNKALPAPIEKTISKAKGQPREPQVYTLPPSRDELTKNQVSLTCLVKGFYPSDIAVEWESNGQPENNYKTTPPVLDSDGSFFLYSKLTVDKSRWQQGNVFSCMVGHEALDAHYTQKSLSLSPGK
# light chain: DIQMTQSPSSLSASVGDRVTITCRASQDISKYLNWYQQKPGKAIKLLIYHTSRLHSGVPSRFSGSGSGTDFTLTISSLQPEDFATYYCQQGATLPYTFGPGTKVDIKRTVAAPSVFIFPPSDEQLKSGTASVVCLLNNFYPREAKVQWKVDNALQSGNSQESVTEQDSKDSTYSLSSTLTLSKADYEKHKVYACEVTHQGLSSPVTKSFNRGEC
# B3: anti-hCD19 FAB-Fc 133 (antibody, human IgG1, kappa)
# heavy: QVQLVQSGGGVVQPGRSLRLSCAASGVSLPDYGVSWVRQAPGKGLEWVAVIWGSETTYYNSALKSRFTISRDNSKNTLYLQMNSLRAEDTAVYYCAKHYYYGGSYAMDYWGQGTLVTVSSASTKGPSVFPLAPSSKSTSGGTAALGCLVKDYFPEPVTVSWNSGALTSGVHTFPAVLQSSGLYSLSSVVTVPSSSLGTQTYICNVNHKPSNTKVDKKVEPKSCDKTHTCPPCPAPELLGGPSVFLFPPKPKDTLMISRTPEVTCVVVDVSHEDPEVQFKWYVDGVEVHNAKTKPREEQYNSTFRVVSVLTVLHQDWLNGKEYKCKVSNKALPAPIEKTISKTKGQPREPQVYTLPPSREEMTKNQVSLTCLVKGFYPSDIAVEWESSGQPENNYNTTPPMLDSDGSFFLYSKLTVDKSRWQQGNIFSCSVMHEALHNRFTQKSLSLSPGK
# light: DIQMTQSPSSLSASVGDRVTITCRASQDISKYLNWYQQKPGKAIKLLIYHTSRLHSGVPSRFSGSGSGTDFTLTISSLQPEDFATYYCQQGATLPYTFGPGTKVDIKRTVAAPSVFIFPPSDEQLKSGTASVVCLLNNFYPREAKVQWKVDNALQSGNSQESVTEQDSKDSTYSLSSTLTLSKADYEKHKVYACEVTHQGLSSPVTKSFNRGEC
# notes: copies: 2 + 2
# B4: anti-hCD19 FAB-Fc 113 (antibody, human IgG1, kappa)
# heavy: QVQLVQSGGGVVQPGRSLRLSCAASGVSLPDYGVSWVRQAPGKGLEWVAVIWGSETTYYNSALKSRFTISRDNSKNTLYLQMNSLRAEDTAVYYCAKHYYYGGSYAMDYWGQGTLVTVSSASTKGPSVFPLAPSSKSTSGGTAALGCLVKDYFPEPVTVSWNSGALTSGVHTFPAVLQSSGLYSLSSVVTVPSSSLGTQTYICNVNHKPSNTKVDKKVEPKSCDKTHTCPPCPAPELLGGPSVFLFPPKPKDTLMISRTPEVTCVVVDVSHEDPEVKFNWYVDGVEVHNAKTKPREEQYNSTYRVVSVLTVLHQDWLNGKEYKCKVSNKALPAPIEKTISKAKGQPREPQVYTLPPSREEMTKNQVSLTCLVKGFYPSDIAVEWESSGQPENNYNTTPPMLDSDGSFFLYSKLTVDKSRWQQGNIFSCSVMHEALHNRFTQKSLSLSPGK
# light: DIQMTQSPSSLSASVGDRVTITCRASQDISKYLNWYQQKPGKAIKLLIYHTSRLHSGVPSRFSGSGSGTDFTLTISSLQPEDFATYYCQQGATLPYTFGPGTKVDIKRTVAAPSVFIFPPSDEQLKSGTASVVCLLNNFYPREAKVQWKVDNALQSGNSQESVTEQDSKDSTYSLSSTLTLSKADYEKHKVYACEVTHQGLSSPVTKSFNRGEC
# notes: copies: 2 + 2
# B5: Fc M252A/E380A/E382A/Y436A/Q438A (other)
# chain: DKTHTCPPCPAPELLGGPSVFLFPPKPKDTLAISRTPEVTCVVVDVSHEDPEVKFNWYVDGVEVHNAKTKPREEQYNSTYRVVSVLTVLHQDWLNGKEYKCKVSNKALPAPIEKTISKAKGQPREPQVYTLPPSRDELTKNQVSLTCLVKGFYPSDIAVAWASNGQPENNYKTTPPVLDSDGSFFLYSKLTVDKSRWQQGNVFSCSVMHEALHNHATAKSLSLSPGK
# notes: Homo-dimeric human IGHG1 Fc variant, EU numbering
# B6: Fc S426M/M428G/H433D/N434A (other)
# chain: DKTHTCPPCPAPELLGGPSVFLFPPKPKDTLMISRTPEVTCVVVDVSHEDPEVKFNWYVDGVEVHNAKTKPREEQYNSTYRVVSVLTVLHQDWLNGKEYKCKVSNKALPAPIEKTISKAKGQPREPQVYTLPPSRDELTKNQVSLTCLVKGFYPSDIAVEWESNGQPENNYKTTPPVLDSDGSFFLYSKLTVDKSRWQQGNVFSCMVGHEALDAHYTQKSLSLSPGK
# notes: as for B5
# B7: Fc S254M/E380M/E382L/S426M/M428G (other)
# chain: DKTHTCPPCPAPELLGGPSVFLFPPKPKDTLMIMRTPEVTCVVVDVSHEDPEVKFNWYVDGVEVHNAKTKPREEQYNSTYRVVSVLTVLHQDWLNGKEYKCKVSNKALPAPIEKTISKAKGQPREPQVYTLPPSRDELTKNQVSLTCLVKGFYPSDIAVMWLSNGQPENNYKTTPPVLDSDGSFFLYSKLTVDKSRWQQGNVFSCMVGHEALHNHYTQKSLSLSPGK
# notes: as for B5
# Assays:
# MabSelect™ Protein A = molecular target: T1, MabSelect™ Protein A (Staphylococcus aureus, UniProt P38507 37-327); test: Protein A gradient mode chromatography (HiTrap MabSelect column), A280 trace against pH gradient
# T1 construct: also called HiTrap™ MabSelect™ Protein A column; MabSelect™ resin
# human FcRn [1] = molecular target: T2, human FcRn (human, UniProt P55899 24-297; P61769 21-119); test: SPR on human FcRn at pH 6.0, steady state KD expressed as ratio to the unmodified IGHG1 control
# T2 construct: range 24-297;range 21-119; Alpha chain non-covalently associated with beta2-microglobulin; used as analyte at pH 6.0; also called human neonatal Fc receptor; soluble form of the extracellular region of the human FcRn
# Protocol: (§1) Growth medium was PowerCHO2 (Lonza Ltd, Basel, Switzerland). Prior purification, post-production supernatants were conditioned with 0.2M NaH₂PO₄, 0.1M NaCl pH6.0 in order to adjust pH to 6.0. FcRn was purified using human IgG sepharose6 Fast flow (GE Healthcare Europe GmbH, Glattbrugg, Switzerland) and eluted with PBS pH7.4. Measurements were recorded on a BIAcore™ 2000 instrument (GE Healthcare Europe GmbH, Glattbrugg, Switzerland). Each Immunoglobulin variant was immobilized on a CM5 sensor chip (GE Healthcare Europe GmbH, Glattbrugg, Switzerland) via amine coupling using a standard protocol provided by the manufacturer to reach an approximate response of 1500 RUs. […] After 3 min of dissociation, PBS pH7.4 was injected for 1 min at 30 μl/min for surface regeneration. KD values were determined using a steady state affinity model. Equilibrium constants were determined by fitting the steady-state response versus the concentration of human FcRn over a range of concentrations to a 1:1 binding model (stoichiometry (n)=1). Measurements were performed in triplicate, and included zero-concentration samples for referencing. Both Chi2 and residual values were used to evaluate the quality of a fit between the experimental data and individual binding models.
# To fit this purpose, each homo-dimeric immunoglobulin was directly coupled onto a CM5 sensor chip. A soluble form of the extracellular region of the human FcRn consisting of its alpha chain non-covalently associated with beta2-microglobulin protein was prepared and used as analyte.
# human FcRn [2] = molecular target: T2, human FcRn; test: SPR (BIAcore 2000): immunoglobulin amine-coupled to a CM5 chip, human FcRn injected as analyte at pH 6.0, steady state affinity model
# Protocol: as §1
# To fit this purpose, each homo-dimeric immunoglobulin was directly coupled onto a CM5 sensor chip. […]
# Protein G [3] = molecular target: T3, Protein G (group C and G Streptococci, UniProt P19909 303-427); test: Protein G gradient mode chromatography (HiTrap Protein G HP column), A280 trace against pH gradient
# T3 construct: Two commercial resins used (Sepharose 4 Fast Flow for capture-elution, HiTrap HP for gradient); also called Protein G Sepharose™ 4 Fast Flow resin; HiTrap™ Protein G HP column
# Protein G [4] = molecular target: T3, Protein G; test: as above; remark: listed apart in the source
# Protein G [5] = molecular target: T3, Protein G; test: as above; remark: listed apart in the source
# T2 sequence (P55899 24-297 limits assumed, form in doubt, chain 1 of 2): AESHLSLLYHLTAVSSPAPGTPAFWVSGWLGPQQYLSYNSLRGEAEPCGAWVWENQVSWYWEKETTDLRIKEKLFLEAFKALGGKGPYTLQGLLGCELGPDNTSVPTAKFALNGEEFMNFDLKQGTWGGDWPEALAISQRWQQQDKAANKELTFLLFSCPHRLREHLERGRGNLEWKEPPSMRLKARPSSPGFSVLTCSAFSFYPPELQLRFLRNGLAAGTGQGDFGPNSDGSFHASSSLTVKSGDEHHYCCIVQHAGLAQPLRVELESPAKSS
# T2 sequence (P61769 21-119 limits assumed, form in doubt, chain 2 of 2): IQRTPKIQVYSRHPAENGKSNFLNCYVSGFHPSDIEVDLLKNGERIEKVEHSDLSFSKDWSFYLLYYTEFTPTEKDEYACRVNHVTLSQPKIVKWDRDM
binder,measurement,setting,value
B1,binding result,MabSelect™ Protein A,no binding
B2,KD ratio (IGHG1/mutant),human FcRn [1],0.48
B3,KD ratio (IGHG1/mutant),human FcRn [1],0.73
same,Kd,human FcRn [2],2680 nM
B4,KD ratio (IGHG1/mutant),human FcRn [1],0.76
B5,binding result,Protein G [3],no binding
B6,binding result,Protein G [4],no binding
B7,binding result,Protein G [5],no binding
